Target: BG505 SOSIP.664 trimer, His-tagged (HIV-1 isolate BG505)
Experiment: SPR

## ACS202 Fab
  stoichiometry N (mAb per trimer): 3
